Test results taken from patent publication US10494415B2, “Insulin-like growth factor 2 (IGF2) binding agents” (Cancer Research Technology Limited, priority 2015, dated 2019).
Marks after values point to notes of the source that are not given here.

How the values were obtained:
IGF2^1-104 = molecular target: T1, IGF2^1-104 (Homo sapiens, UniProt P01344); assay: SPR of IGF forms on Fc-domain 11 proteins immobilised by antibody capture; type: binding; details: HBS-EP pH 7.4
T1 construct: pro-IGF2 (pro-IGF2^1-104 [11 kDa]
Procedure: (§1) SPR analysis of the interaction of recombinant IGF1 and IGF2 forms with Fc-domain 11 proteins immobilised by antibody capture (CM5 chip containing monoclonal mouse anti-human IgG antibody immobilised by amine coupling). Measurements were carried out at 25° C. in HBS-EP buffer (pH 7.4).
(§2) Final kinetic analysis of mutants by SPR was conducted using a Biacore T200 biosensor at 25° C. in either HBS-EP (10 mM HEPES pH 7.4, 150 mM NaCl, 3 mM EDTA, and 0.005% (v/v) surfactant P20) or MES-EP (20 mM MES pH 6.5, 150 mM NaCl, 3 mM EDTA, and 0.005% (v/v) surfactant P20) at a flow-rate of 40 μL min^−1. […] For the analysis of the Fc-domain 11^AB5 interaction, approximately 50 RU of a biotinylated IGF2:biotinylated ubiquitin mixture (1:8 proportion) was immobilized on the CM5-streptavidin chip. This interaction was also analysed by immobilizing the Fc-domain 11^AB5 and Fc-domain 11^AB5-RHH (or Fc-domain 11^I1572A as control) by Human Antibody Capture (monoclonal mouse anti-human IgG antibody immobilised on a CM5 chip by amine coupling, GE Healthcare) with and without human IgG1 Fc fragment (Bethyl Laboratories, UK) in the control flow cell. Increasing concentrations of IGF2^1-67, proIGF2^1-104, proIGF2^1-156 and IGF1 ranging from 0.125 to 32 nM were injected. T200 BiaEvaluation software (GE Healthcare) was used to fit the resulting curves according to a 1:1 binding model. Steady state affinities were determined using the kinetic data, taking the response average at 5 seconds before injection end and for 5 seconds average. Thermodynamic data was performed across the temperature range of 10° C. to 30° C., van't Hoff and Erying plots generated and ΔH, −TΔS and ΔG values determined as previously described.

IGF2^1-156 = molecular target: T2, IGF2^1-156 (Homo sapiens, UniProt P01344); assay: as above; type: binding
T2 construct: pro-IGF2^1-156 [17 kDa]
Procedure: as §1, §2

IGF2^1-67 = molecular target: T3, IGF2^1-67 (Homo sapiens, UniProt P01344); assay: as above; type: binding; details: HBS-EP pH 7.4
T3 construct: Recombinant mature (IGF2^1-67 [7.5 kDa]
Procedure: as §1, §2

IGF2 in human serum = assay: Neutral size fractionation of human serum before and after depletion with IGF2-TRAP beads, western blot
Procedure: FIG. 14 IGF2-TRAP modifies the molecular distribution of IGF2 in human serum. Normal (left) and NICTH (right) sera were fractionated in a gel filtration column at neutral pH, alongside a molecular weight calibration marker, before and after incubation and depletion with IGF2-TRAP-loaded protein G beads. Elution fractions were analysed by western blot.
Changes in the molecular distribution of circulating IGF2 upon IGF2-TRAP treatment were analysed by neutral size fractionation of human serum (FIG. 14). In adult human serum, western blots of the fractions reveal that IGF2 is mainly the mature lower molecular weight isoform, and is predominantly present in a ternary complex with IGFBP3 and the acid labile subunit (ALS) (˜150 kDa), and to a lesser extent in a binary complex with IGFBP3 (˜40 kDa), with free IGF2 below the limit of detection. […] Pull-downs confirmed that the depleted IGF2 specifically bound IGF2-TRAP. In a second experiment, serum from a patient with Non-Islet-Cell Tumour-associated Hypoglycaemia (NICTH) secondary to a GIST tumour was utilised.

T2 sequence (P01344 25-180): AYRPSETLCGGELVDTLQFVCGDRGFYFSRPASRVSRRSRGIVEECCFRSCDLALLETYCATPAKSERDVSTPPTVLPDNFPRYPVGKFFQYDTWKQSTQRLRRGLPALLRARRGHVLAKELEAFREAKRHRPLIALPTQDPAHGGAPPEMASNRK
T1 sequence (P01344 25-128): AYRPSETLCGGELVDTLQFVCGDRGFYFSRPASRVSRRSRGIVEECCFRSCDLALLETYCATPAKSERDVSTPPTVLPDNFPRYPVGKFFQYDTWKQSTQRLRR
T3 sequence (P01344 25-91): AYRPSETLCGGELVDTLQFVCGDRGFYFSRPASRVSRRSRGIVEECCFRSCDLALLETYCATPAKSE
Sequence of IGF2 in human serum (P01344 25-91 limits assumed): as the sequence (P01344 25-91) above

B1: Fc-domain 11^AB5-RHH: Fc-fusion of domain 11^AB5-RHH (IGF2-TRAP); IgG2 Fc form purified from CHO cells used for xenografts (protein)
chain: NEHDDCQVTNPSTGHLFDLSSLSGRAGFTAAYAKGWGVYMSICGENENCPPGVGACFGRTRISVGKANKRLRYVDQVLQLVYKDGSHCPSKHGLSYKSVISFVCRPEAGPTNRPMLISLDKQTCTLFFSWHTPLACEQAT
modifications: left off: a dimerising Fc or GST
notes: Fc-fusion of domain 11^AB5-RHH (IGF2-TRAP); IgG2 Fc form purified from CHO cells used for xenografts
For B1, the Kinetics koff (IGF2^1-104) was 0.0005 s⁻¹, the Kinetics kon (IGF2^1-104) was 1.29e+06 M⁻¹ s⁻¹ and the Kinetics koff (IGF2^1-156; HBS-EP pH 7.4) was 0.0003 s⁻¹. The Kinetics kon (IGF2^1-156; may be inaccurate (mixture of three isoforms)) was 0.23* ×10^6 M^−1s^−1, the Kinetics koff (IGF2^1-67) was 0.0014 s⁻¹ and the Kinetics kon (IGF2^1-67) was 2.6e+06 M⁻¹ s⁻¹. For the same molecule, the “IGF2 distribution in serum after IGF2-TRAP depletion” value (IGF2 in human serum; NICTH patient serum) was “depleted both lower and higher molecular weight isoforms of IGF2” and the “IGF2 distribution in serum after IGF2-TRAP depletion” value (IGF2 in human serum; normal adult human serum) was “depleted IGF2 in the binary complex”.
